Laboratory results taken from patent US20250051266A1, “Novel GLV-Phenolamide: Biosynthesis and Function in Protecting Plants from Herbivore Attack” (Max-Planck-Gesellschaft zur Förderung der Wissenschaften …, priority 2021, published 2025).

How the values were obtained:
Type in all cases: biochemical, Nicotiana attenuata
Settings in all cases: other substrate fixed ((Z)-3-hexenal 1 mM or caffeoylputrescine 80 μM)
[1] = substrate: NCCCCNC(=O)/C=C/c1ccc(O)c(O)c1; assay: Steady-state Michaelis-Menten kinetics of NaPPO1 (with or without NaBBL2)
Source text: (§1) FIG. 49 Michaelis-Menten kinetics of PPO1 and BBL2 with different concentrations of caffeoylputrescine and (Z)-3-hexenal. Steady-state kinetics of caffeoylputrescine or (Z)-3-hexenal conversion to CPH catalyzed by PPO1 purified from E. coli B121 expressing PPO1. Error bars represent the standard error of the means (SEM) from three independent measurements of reaction velocity. The kinetic constants, apparent Km and Vmax (Table 2), and their standard errors were inferred using nonlinear Michaelis-Menten curve-fitting in GraphPad Prism (v. 9.0d). Substrate concentration for (Z)-3-hexenal was 1 mM.
as §1, with “FIG. 51” for “FIG. 49”, “Vmax (see Table” for “Vmax (Table”, “for caffeoylputrescine” for “for (Z)-3-hexenal”, “was 80 μM.” for “was 1 mM.”
(§2) Steady-state kinetics of NaPPO1, NaPPo2 and NaBBL2 enzymes: For steady-state kinetic analysis, the ability to oxidize N-caffeoylputrescine was tested in 84 mM acetate buffer (pH 4.8) at 22° C. water bath, containing 1 mM (Z)-3-hexnal, 1 mM FAD, 32 μg NaPPO1/NaPPO2, 30 μg/90 μg NaBBL2 (total volume 100 μL); assays lacking NaBBL2 enzymes served as negative controls.
(§3) The following eight N-caffeoylputrescine final concentrations were each tested at three independent experiments: 10, 20, 40, 60, 80, 120, 140, and 160 μM. Likewise, the ability to catalyze (Z)-3-hexnal was tested in 84 mM acetate buffer (pH 4.8) at 22° C., containing 80 μM N-caffeoylputrescine, 1 mM FAD, 32 μg NaPPO1/NaPPO2, 30 μg/90 μg NaBBL2 (total volume 100 μL); again, assays lacking NaBBL2 enzymes served as negative controls. The following eight (Z)-3-hexnal final concentrations were each tested in three independent experiments: 500, 600, 700, 800, 1000, 1200, 1600, and 2000 μM. The reactions were initiated by the addition of the corresponding recombinant enzymes and the components were mixed by briefly vortexing, and immediately returned to the 22° C. water bath for incubation. After 20 minutes, all the reactions were briefly vortexed, and 100 μL aliquot of each reaction was transferred to a cold Eppendorf tube (−20° C.) containing 100 μL of MeOH (with 600 ng/mL testosterone as an internal standard) to terminate enzyme activity. Samples were centrifuged at 16,000g, 4° C. for 30 min, and 150 μL supernatants were transferred into to 2 mL glass vials for LC/MS (1 μL injection volume) analysis under the same method as described previously. Standard curves for caffeoylputrescine using authentic standards (with 600 ng/mL testosterone as an internal standard) (FIG. 34) were used to calculate the concentrations of substrate and product in each assay sample. The kinetic constants for caffeoylputrescine and (Z)-3-hexnal, apparent Km and Vmax, were inferred using a nonlinear regression in GraphPad Prism 9 (FIG. 34).

[2] = substrate: CC/C=C\CC=O; assay: as above
Source text: as §1
as §1, with “FIG. 51” for “FIG. 49”, “Vmax (see Table” for “Vmax (Table”, “for caffeoylputrescine” for “for (Z)-3-hexenal”, “was 80 μM.” for “was 1 mM.”
as §2, §3

[3] = substrate: NCCCCNC(=O)/C=C/c1ccc(O)c(O)c1; assay: Steady-state Michaelis-Menten kinetics of NaPPO2 (with or without NaBBL2)
Source text: as §1, with “50” for “49”, “PPO2” for “PPO1”, “PPO2.” for “PPO1.”
as §1, with “52” for “49”, “PPO2” for “PPO1”, “PPO2.” for “PPO1.”, “mM.Substrate concentration for caffeoylputrescine was 80 μM.” for “mM.”
as §2, §3

[4] = substrate: CC/C=C\CC=O; assay: as above
Source text: as §1, with “50” for “49”, “PPO2” for “PPO1”, “PPO2.” for “PPO1.”
as §1, with “52” for “49”, “PPO2” for “PPO1”, “PPO2.” for “PPO1.”, “mM.Substrate concentration for caffeoylputrescine was 80 μM.” for “mM.”
as §2, §3

[5] = other: PPO1 + BBL2 (30 μg), pH 4.8, 22.0 °C
[6] = other: PPO1 + BBL2 (90 μg), pH 4.8, 22.0 °C
[7] = other: PPO1 alone, pH 4.8, 22 °C
[8] = other: PPO2 + BBL2 (30 μg), pH 4.8, 22.0 °C
[9] = other: PPO2 + BBL2 (90 μg), pH 4.8, 22.0 °C
[10] = other: PPO2 alone, pH 4.8, 22 °C

B1: NaPPO1 (Nicotiana attenuata) (protein)
chain: MASSSTLPLCTTKTPFSSSTNSFFFAKPSHLFLNGKRNQSFKVSCTGEHDGNQLDAIKEGAVERRNVLLGLGGLYGAANLAPLASAAPVPPPDLKSCGPATITDGPTVSYSCCPPTPDDMDSVPYYKIPRMSKLRKRPAAQDVSEEYIAKYQLATSKMRELDKDPFDPLGFKQQANIHCAYCNDAYTMGDKKLQVHQSWLFFPFHRWYLYFYERILGSLIDDPTFALPYWNWDHPSGMRLPAMFDVEGSSLYDARRNPNVRNGTIIDLGFFGNEVKTNEIQMITNNLILMYRQMITNAPSPLLFFGEPYRFGSKPNPGQGTIENIPHTPVHIWTGTVRDTDLGNGVKSYGEDMGNFYSAGLDPVFYSHHANVDRMWNEWKALGGKRRDLTDKDWLNSEFFFYDENRDPWRVKVRDCLDSKKMGYDYEPKATPWRNFKPGKKTTPGKVNLRSVKPASKVFPLSNLDRAICFSIERPATSRSQQEKDEFEEVLTFKNLKYDDSRYIKFDVFVNADKTVNADDIDKTEYAGSYTSLPHVHGPNNATHVVEVEEFKLAITELLEDCGLEDDDIIAVTVVPKTGGEVVSIDCVLIELKAFY
Km [1, 5]: 86.09 ± 15.34 µM
Vmax [1, 5]: 0.25 ± 0.02 µM/mg/min
Km [1, 6]: 95.52 ± 28.20 µM
Vmax [1, 6]: 0.26 ± 0.04 µM/mg/min
Km [1, 7]: 67.30 ± 10.59 µM
Vmax [1, 7]: 0.21 ± 0.01 µM/mg/min
Km [2, 5]: 870.67 ± 381.05 µM
Vmax [2, 5]: 0.10 ± 0.02 µM/mg/min
Km [2, 6]: 870.67 ± 381.05 µM
Vmax [2, 6]: 0.09 ± 0.02 µM/mg/min
Km [2, 7]: 853.22 ± 257.87 µM
Vmax [2, 7]: 0.09 ± 0.01 µM/mg/min

B2: NaPPO2 (Nicotiana attenuata) (protein)
chain: MASSSSSTLPLCASKTPSSSFTNTNSSFFAKPSQLFLHGKRNQNFKFSCNANSGEHDKNLDAVDRRNVLLGLGGLYGAANLAPLATAAPIPPPDLKSCSKAHINDQEEVSYSCCPPIPSDMDSVPYYKFPSMPKLRIRPAAHAADEEYIAKYQLATSRMRELDKDPFDPLGFKQQANIHCAYCNGAYKIGGKELQVHFSWLFFPFHRWYLYFYERILGSLINDPTFGLPYWNWDHPKGMRIPPMFDREGSSLYDARRNQSHRNGTIIDLGYFGTEVQTTQLQQMTNNLTIMYRQMITNAPCPLLFFGQPYPLGTDPSPGMGTIENIPHTPVHIWVGSGPNENNVQHGEDMGNFYSAGLDPLFYSHHANVDRMWSEWKALGGKRRDLTHKDWLNSEFFFYDENRNPFRVKVRDCLDSKKMGFDYAPMPTPWRNFKPIRKSNAGKVNLSSVPPASRVFPLSKLDRAISFSIDRPSSSRTQQEKNEQEEMLTFNNIKYDDSKYIRFDVFLNVDKTVNADELDKAEYAGSYTSLPHVHGDNASHVTSVTFQLAITELLEDIGLEDEDTIAVTVVPKTGGEEISIEGVEIKLVDC
Km [3, 8]: 206.18 ± 49.95 µM
Vmax [3, 8]: 0.63 ± 0.09 µM/mg/min
Km [3, 9]: 207.19 ± 78.07 µM
Vmax [3, 9]: 0.67 ± 0.17 µM/mg/min
Km [3, 10]: 204.35 ± 51.37 µM
Vmax [3, 10]: 0.64 ± 0.10 µM/mg/min
Km [4, 8]: 662.39 ± 360.69 µM
Vmax [4, 8]: 0.021 ± 0.004 µM/mg/min
Km [4, 9]: 643.31 ± 217.25 µM
Vmax [4, 9]: 0.024 ± 0.003 µM/mg/min
Km [4, 10]: 673.35 ± 393.28 µM
Vmax [4, 10]: 0.023 ± 0.005 µM/mg/min
